From publication PMC8320243 (Circulation research, 2021)
Positions count from the first letter of the chain named. Names and notes keep the numbering of the source.

Target: the molecule itself
Experiment: cross-linking

B1: cMyc-tagged RyR2 N-terminus (NT, residues 1-906), wild type (domain or fragment, UniProt Q92736 1-906, looked up)
chain: MADGGEGEDEIQFLRTDDEVVLQCTATIHKEQQKLCLAAEGFGNRLCFLESTSNSKNVPPDLSICTFVLEQSLSVRALQEMLANTVEKSEGQVDVEKWKFMMKTAQGGGHRTLLYGHAILLRHSYSGMYLCCLSTSRSSTDKLAFDVGLQEDTTGEACWWTIHPASKQRSEGEKVRVGDDLILVSVSSERYLHLSYGNGSLHVDAAFQQTLWSVAPISSGSEAAQGYLIGGDVLRLLHGHMDECLTVPSGEHGEEQRRTVHYEGGAVSVHARSLWRLETLRVAWSGSHIRWGQPFRLRHVTTGKYLSLMEDKNLLLMDKEKADVKSTAFTFRSSKEKLDVGVRKEVDGMGTSEIKYGDSVCYIQHVDTGLWLTYQSVDVKSVRMGSIQRKAIMHHEGHMDDGISLSRSQHEESRTARVIRSTVFLFNRFIRGLDALSKKAKASTVDLPIESVSLSLQDLIGYFHPPDEHLEHEDKQNRLRALKNRQNLFQEEGMINLVLECIDRLHVYSSAAHFADVAGREAGESWKSILNSLYELLAALIRGNRKNCAQFSGSLDWLISRLERLEASSGILEVLHCVLVESPEALNIIKEGHIKSIISLLDKHGRNHKVLDVLCSLCVCHGVAVRSNQHLICDNLLPGRDLLLQTRLVNHVSSMRPNIFLGVSEGSAQYKKWYYELMVDHTEPFVTAEATHLRVGWASTEGYSPYPGGGEEWGGNGVGDDLFSYGFDGLHLWSGCIARTVSSPNQHLLRTDDVISCCLDLSAPSISFRINGQPVQGMFENFNIDGLFFPVVSFSAGIKVRFLLGGRHGEFKFLPPPGYAPCYEAVLPKEKLKVEHSREYKQERTYTRDLLGPTVSLTQAAFTPIPVDTSQIVLPPHLERIREKLAENIHELWVMNKIELGWQYGP
- stoichiometry N: 4

B2: cMyc-tagged RyR2 N-terminus (NT, residues 1-906) with R420Q (domain or fragment, UniProt Q92736 1-906, looked up)
chain: B1 chain with R420Q
- stoichiometry N: 4
